Experimental data from doi:10.1101/2025.09.26.678709, “MRAP2 potentiates GPCR signaling by conserved mechanisms that are disrupted by obesity-associated genetic variants” (bioRxiv, 2025).
One block for each binder: values may come before it.

Legend:
Settings in all cases: partners not purified
HA-Halo-MC4R = biological target: T1, HA-Halo-MC4R (human, UniProt P32245 1-332, CA-Sulfo646 dye on the Halo tag); test: single-molecule pull-down (SiMPull) with photobleaching step counting; two-color: HA-Halo protein (CA-Sulfo646) and FLAG-CLIP protein (BC-DY547) co-expressed in HEK293 (300 ng Halo and 600 ng CLIP plasmid), lysed in 0.5% LMNG/0.05% CHS, captured by biotinylated anti-HA antibody, co-localized spots analysed by TIRF; also reanalysed for monomeric against oligomeric GPCR
T1 construct: melanocortin receptor-4 (MC4R), human; N-terminal signal peptide from rat mGluR2 in the construct; also called melanocortin receptor 4; source: HEK293, transfected, in lysate (LMNG-CHS); not shown: HA, N-terminal, kept; Halo, N-terminal, kept

HA-Halo-GHSR = biological target: T2, HA-Halo-GHSR (human, UniProt Q92847 1-366, CA-Sulfo646 dye on the Halo tag); test: as above
T2 construct: growth hormone secretagogue receptor-1a (GHSR), human; N-terminal signal peptide from rat mGluR2 precedes the HA tag in the construct (pRK5 vector); also called ss-HA-Halo-GHSR; growth hormone secretagogue receptor-1a; source: HEK293, transfected, in lysate (LMNG-CHS); not shown: HA, N-terminal, kept; Halo, N-terminal, kept

GHSR-LgC = biological target: T3, GHSR-LgC (UniProt Q92847 1-366); test: split reporter (BiFC, NanoBiT); HEK293 cells transfected with 100 ng GHSR-LgC and MRAP2-SmC, 48 h, Nano-Glo substrate, 37°C; normalised to cells with LgC-empty and SmC-empty
T3 construct: GHSR cloned into the LgBiT-C plasmid (Promega); also called GHSR with LgBiT at the C-terminus; source: HEK293, transfected, in cells; not shown: LgBiT, C-terminal, kept

HA-Halo-MRAP2 = biological target: T4, HA-Halo-MRAP2 (human, UniProt Q96G30 1-205, CA-Sulfo646 dye on the Halo tag); test: single-molecule pull-down (SiMPull) with photobleaching step counting; two-color: HA-Halo protein (CA-Sulfo646) and FLAG-CLIP protein (BC-DY547) co-expressed in HEK293 (300 ng Halo and 600 ng CLIP plasmid), lysed in 0.5% LMNG/0.05% CHS, captured by biotinylated anti-HA antibody, co-localized spots analysed by TIRF; also reanalysed for monomeric against oligomeric GPCR
T4 construct: melanocortin receptor-2 accessory protein-2 (MRAP2), human; N-terminal signal peptide from rat mGluR2 in the construct; also called melanocortin receptor-2 accessory protein-2; source: HEK293, transfected, in lysate (LMNG-CHS); not shown: HA, N-terminal, kept; Halo, N-terminal, kept
T4 sequence (looked up): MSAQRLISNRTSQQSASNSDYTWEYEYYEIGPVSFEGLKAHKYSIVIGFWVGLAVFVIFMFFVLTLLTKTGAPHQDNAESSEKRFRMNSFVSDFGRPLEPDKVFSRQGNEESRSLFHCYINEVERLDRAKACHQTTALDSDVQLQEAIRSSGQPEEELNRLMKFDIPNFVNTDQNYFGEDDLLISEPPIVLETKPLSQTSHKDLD

T1 sequence (P32245 whole entry): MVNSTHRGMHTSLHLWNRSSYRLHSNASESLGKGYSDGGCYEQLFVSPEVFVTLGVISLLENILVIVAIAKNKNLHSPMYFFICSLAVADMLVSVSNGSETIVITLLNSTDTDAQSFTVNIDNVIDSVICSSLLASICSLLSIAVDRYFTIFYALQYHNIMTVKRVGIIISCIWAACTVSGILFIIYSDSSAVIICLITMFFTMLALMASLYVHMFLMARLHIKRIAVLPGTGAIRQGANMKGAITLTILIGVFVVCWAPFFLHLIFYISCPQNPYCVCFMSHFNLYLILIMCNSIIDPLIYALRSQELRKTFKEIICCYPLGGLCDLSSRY

percent of co-localized spots with 2-step bleaching for MRAP2 (HA-Halo-MC4R): 29%
stoichiometry N (HA-Halo-MC4R): 1 MRAP2 per MC4R
percent of co-localized spots with 2-step bleaching for MRAP2 (HA-Halo-GHSR): 27%
stoichiometry N (HA-Halo-GHSR): 1 MRAP2 per GHSR
B1: FLAG-CLIP-MRAP2 (natural protein, human, UniProt Q96G30 1-205, looked up)
chain: T4 sequence (looked up)
modifications: BC-DY547 dye on the CLIP tag
notes: melanocortin receptor-2 accessory protein-2 (MRAP2), human; N-terminal signal peptide from rat mGluR2 in the construct; source: HEK293, transfected, in lysate (LMNG-CHS); not shown: CLIP, N-terminal, kept

fold luminescence over negative controls (GHSR-LgC): 400 fold
B2: MRAP2-SmC (natural protein, UniProt Q96G30 1-205, looked up)
chain: T4 sequence (looked up)
notes: MRAP2; printed as MRAP2-SmC in the results and SmC-MRAP2 in the methods; also called SmC-MRAP2; source: HEK293, transfected, in cells

percent of co-localized spots with 2-step bleaching for MRAP2 (HA-Halo-MRAP2): 22%
stoichiometry N (HA-Halo-MRAP2): 1 MRAP2 per GHSR
B3: FLAG-CLIP-GHSR (receptor, human, UniProt Q92847 1-366, looked up)
chain: MWNATPSEEPGFNLTLADLDWDASPGNDSLGDELLQLFPAPLLAGVTATCVALFVVGIAGNLLTMLVVSRFRELRTTTNLYLSSMAFSDLLIFLCMPLDLVRLWQYRPWNFGDLLCKLFQFVSESCTYATVLTITALSVERYFAICFPLRAKVVVTKGRVKLVIFVIWAVAFCSAGPIFVLVGVEHENGTDPWDTNECRPTEFAVRSGLLTVMVWVSSIFFFLPVFCLTVLYSLIGRKLWRRRRGDAVVGASLRDQNHKQTVKMLAVVVFAFILCWLPFHVGRYLFSKSFEPGSLEIAQISQYCNLVSFVLFYLSAAINPILYNIMSKKYRVAVFRLLGFEPFSQRKLSTLKDESSRAWTESSINT
modifications: BC-DY547 dye on the CLIP tag
notes: growth hormone secretagogue receptor-1a (GHSR), human; N-terminal signal peptide from rat mGluR2 precedes the FLAG tag in the construct (pRK5 vector); also called ss-FLAG-CLIP-GHSR; source: HEK293, transfected, in lysate (LMNG-CHS); not shown: CLIP, N-terminal, kept
